According to patent US20110158936A1 (LORUS THERAPEUTICS, published 2011):

T1: murine interleukin 17E receptor present on the pre-B cell line 70Z/3 (murine, UniProt Q9JIP3 18-499)
T1 construct: whole, on cells; This is the endogenous receptor on 70Z/3 cells; also called murine IL-17E receptor; IL-17E receptor
T1 sequence (looked up): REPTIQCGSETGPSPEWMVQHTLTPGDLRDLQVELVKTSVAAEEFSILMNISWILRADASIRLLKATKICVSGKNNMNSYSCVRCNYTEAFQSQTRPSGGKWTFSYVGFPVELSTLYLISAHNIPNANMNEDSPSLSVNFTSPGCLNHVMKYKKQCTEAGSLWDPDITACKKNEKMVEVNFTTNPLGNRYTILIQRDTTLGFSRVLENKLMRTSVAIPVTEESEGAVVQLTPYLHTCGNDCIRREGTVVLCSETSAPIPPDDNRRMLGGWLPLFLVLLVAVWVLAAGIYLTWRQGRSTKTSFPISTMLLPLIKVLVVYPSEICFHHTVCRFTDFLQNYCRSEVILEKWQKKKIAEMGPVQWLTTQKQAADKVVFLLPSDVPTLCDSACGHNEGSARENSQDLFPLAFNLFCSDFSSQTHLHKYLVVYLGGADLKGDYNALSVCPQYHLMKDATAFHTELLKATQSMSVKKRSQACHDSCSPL


Key:
[1] = molecular target: T1, murine interleukin 17E receptor present …; experiment: FACS on 70Z/3 cells incubated with IL-17E (1 ug/10^6 cells), detected with biotin-conjugated goat anti-mouse IL17E and PE-Cy5.5 streptavidin
Experimental: (§1) The ability of human and murine interleukin 17E to bind to the IL-17E receptor was examined using the murine pre-B cell line 70Z/3 (Paige, C. J., et al. (1981) Nature 292:631-3).
(§2) Fluorescence-Activated Cell Sorter (FACS) Analysis: 1×10⁶ 70Z/3 cells/sample were incubated with either murine or human IL-17E (1 μg/10⁶ cells) for 30 minutes at 4° C. After washing twice, cells that had been incubated with murine IL-17E were incubated with biotin-conjugated goat anti-mouse IL17E and phycoerythrin (PE)-Cy5.5-conjugated streptavidin. Cells that had been incubated with human IL-17E were incubated with biotin-conjugated goat anti-human IL17E-biotin and phycoerythrin (PE)-Cy5.5-conjugated streptavidin. As negative controls, cells were stained with antibodies as described without preincubation with human or murine IL-17E. Samples were then fixed with 0.5% paraformaldehyde prior to FACS analysis.

[2] = molecular target: T1, murine interleukin 17E receptor present …; experiment: FACS on 70Z/3 cells incubated with IL-17E (1 ug/10^6 cells), detected with biotin-conjugated goat anti-human IL17E and PE-Cy5.5 streptavidin
Experimental: as §1, §2

binding result [1] | binding result [2] | Binder
binds |  | murine interleukin 17E (ligand, also called murine IL-17E; mIL-17E) VSLRIQEGCSHLPSCCPSKEQEPPEEWLKWSSASVSPPEPLSHTHHAESCRASKDGPLNSRAISPWSYELDRDLNRVPQDLYHARCLCPHCVSLQTGSHMDPLGNSVPLYHNQTVFYRRPCHGEEGTHRRYCLERRLYRVSLACVCVRPRVMA
 | binds | recombinant human interleukin 17E (ligand, also called human IL-17E; hIL-17E) YSHWPSCCPSKGQDTSEELLRWSTVPVPPLEPARPNRHPESCRASEDGPLNSRAISPWRYELDRDLNRLPQDLYHARCLCPHCVSLQTGSHMDPRGNSELLYHNQTVFYRRPCHGEKGTHKGYCLERRLYRVSLACVCVRPRVMG
